Source: US20120077731A1 (Ablynx, published 2012)
Positions count from the first letter of the chain named.

T1: Human soluble IL-6R (human, UniProt P08887 20-358)
T1 construct: Soluble recombinant form; biotinylated in some assays; also called hIL-6R; human IL-6R
T1 sequence (looked up): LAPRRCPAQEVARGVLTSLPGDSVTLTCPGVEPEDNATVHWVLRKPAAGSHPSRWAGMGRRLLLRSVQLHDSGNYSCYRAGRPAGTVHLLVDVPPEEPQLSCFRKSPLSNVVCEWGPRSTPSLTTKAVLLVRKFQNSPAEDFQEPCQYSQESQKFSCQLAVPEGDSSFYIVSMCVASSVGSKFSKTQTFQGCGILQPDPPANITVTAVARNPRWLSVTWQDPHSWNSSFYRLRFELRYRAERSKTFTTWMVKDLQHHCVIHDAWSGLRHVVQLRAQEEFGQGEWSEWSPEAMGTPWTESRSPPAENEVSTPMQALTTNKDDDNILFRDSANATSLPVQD

T2: Human plasma sIL-6R (human, UniProt P08887 20-355, limits assumed)
T2 construct: also called plasma-derived human IL-6R
T2 sequence (looked up): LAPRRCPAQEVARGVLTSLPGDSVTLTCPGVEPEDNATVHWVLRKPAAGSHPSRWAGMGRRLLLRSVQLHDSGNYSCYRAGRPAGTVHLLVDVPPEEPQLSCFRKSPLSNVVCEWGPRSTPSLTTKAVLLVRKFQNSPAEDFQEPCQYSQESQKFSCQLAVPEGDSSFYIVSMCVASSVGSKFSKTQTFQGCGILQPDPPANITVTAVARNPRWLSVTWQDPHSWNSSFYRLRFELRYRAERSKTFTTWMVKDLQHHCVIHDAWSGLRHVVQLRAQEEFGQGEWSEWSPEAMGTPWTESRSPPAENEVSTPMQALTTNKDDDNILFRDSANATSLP

T3: Cyno plasma sIL-6R (cynomolgus monkey, UniProt A0A2K5WN54 60-396)
T3 construct: also called cynomolgus sIL-6R
T3 sequence: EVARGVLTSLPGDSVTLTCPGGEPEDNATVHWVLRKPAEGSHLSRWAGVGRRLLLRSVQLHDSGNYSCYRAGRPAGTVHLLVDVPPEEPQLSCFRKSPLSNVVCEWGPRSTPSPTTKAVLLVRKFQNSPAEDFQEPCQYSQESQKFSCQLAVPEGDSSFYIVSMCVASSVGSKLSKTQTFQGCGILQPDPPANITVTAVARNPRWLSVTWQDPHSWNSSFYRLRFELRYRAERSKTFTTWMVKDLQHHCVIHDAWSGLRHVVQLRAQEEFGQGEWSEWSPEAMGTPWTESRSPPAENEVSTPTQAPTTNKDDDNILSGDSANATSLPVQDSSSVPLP

T4: Cyno IL-6R (cynomolgus monkey, UniProt A0A2K5WN54 60-396)
T4 construct: also called cynomolgus monkey IL-6R; recombinant cyno sIL-6R
T4 sequence: T3 sequence

T5: Human membrane IL-6R on cells (human, UniProt P08887 20-468)
T5 sequence (looked up): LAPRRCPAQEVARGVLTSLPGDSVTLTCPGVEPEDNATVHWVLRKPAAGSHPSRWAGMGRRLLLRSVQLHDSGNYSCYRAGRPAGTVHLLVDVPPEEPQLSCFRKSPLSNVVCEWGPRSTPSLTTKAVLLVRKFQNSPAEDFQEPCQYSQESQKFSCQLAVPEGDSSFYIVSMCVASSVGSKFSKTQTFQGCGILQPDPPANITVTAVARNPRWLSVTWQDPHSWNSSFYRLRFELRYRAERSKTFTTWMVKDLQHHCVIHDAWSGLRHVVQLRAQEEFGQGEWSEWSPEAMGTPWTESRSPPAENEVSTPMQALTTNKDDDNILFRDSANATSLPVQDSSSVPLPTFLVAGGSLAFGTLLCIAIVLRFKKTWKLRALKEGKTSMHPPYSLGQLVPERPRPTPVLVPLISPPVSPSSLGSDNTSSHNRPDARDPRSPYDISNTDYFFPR

B1: PMP7C4 (VHH)
VHH: EVQLVESGGGLVQPGGSLRLSCAASGTTFRINVMAWYRQAPGKGRELVAGIITNGSTSYADSVKGRFTISRDNAKNTLYLQMNSLRPEDTAVYYCAFVTTNSDYDLGRDYWGQGTLVTVSS
notes: not shown: c-myc and (His)6 tags
B2: PMP7D6 (VHH)
VHH: B1 VHH with T27S, T28I, I31V, G50A, I51V, T53N, N54G, S56T, S58T
notes: as for B1
B3: PMP7F4 (VHH)
VHH: B1 VHH with R30K, I31V, T53N, N54G, S58T
B4: PMP7G7 (VHH)
VHH: B1 VHH with R30K, V33I, I51V, N54G, S56N, S58T
notes: expressed with c-myc and (His)6 tags
B5: PMP7G8 (VHH)
VHH: B1 VHH with T27S, I51V, T53N, N54D, S58T
notes: as for B4
B6: IL6R88 (VHH)
VHH: EVQLVESGGGLVQPGGSLRLSCAASGFTFDDYGMSWVRQAPGKGTEWVSAISWNGNNTYYTESMKGRFTISRDNAKNTLYLQMNSLRPEDTAVYYCVKGSTAIVGVPPTYPDEYDYWGQGTLVTVSS
notes: tested as periplasmic extract and purified
B7: IL6R75 (VHH)
VHH: EVQLVESGGGLVQPGGSLRLSCAASGFTFSDYDIGWFRQAPGKGREGVSGISSSDGNTYYADSVKGRFTISRDNAKNTLYLQMNSLRPEDTAVYYCAAEPPDSSWYLDGSPEFFKYWGQGTLVTVSS
notes: also called ILR7.5; not shown: tag (IL6R201 is called the tagless version of IL6R75)
B8: IL6R201 (VHH)
VHH: B7 VHH
notes: also called tagless version of IL6R75; 16R201/75
B9: IL6R81 (VHH)
VHH: B6 VHH with K43R, G44A, L79V
B10: IL6R82 (VHH)
VHH: B6 VHH with T45L, L79V
B11: IL6R83 (VHH)
VHH: B6 VHH with K43R, G44A
B12: IL6R84 (VHH)
VHH: B6 VHH with T45L
B13: IL6R71 (VHH)
VHH: B7 VHH with S30D, R72S, L79V
B14: IL6R72 (VHH)
VHH: B7 VHH with R72S, L79V
B15: IL6R73 (VHH)
VHH: B7 VHH with S30D, L79V
B16: IL6R74 (VHH)
VHH: B7 VHH with S30D, R72S

The binders below were run against T1, Human soluble IL-6R (assay: SPR (Biacore), binding curves at several concentrations of purified Nanobody on IL-6R).

B1 and B2 are within 1.5-fold of each other in Kd: 0.34 nM for the first, 0.42 nM for the second.

B3 and B4 are within 1.5-fold of each other in Kd: 0.48 nM for the first, 0.56 nM for the second.

Work on B5 yielded a Kd of 0.95 nM.

Each binder was assayed against T1, Human soluble IL-6R (assay: Biacore off-rate, periplasmic extracts).

Binder B6 has a koff of 0.00026 s⁻¹.

These binders were tested against T2, Human plasma sIL-6R (assay: plasma potency assay, human plasma, 42 nM IL6; blocked ligand IL-6).
Protocol: (§1) All 5 affinity matured Nanobodies and the sequence optimized Nanobody were also tested in a plasma potency assay. […] TMB was used as substrate.

With B2 the IC50 was 0.95 nM.

Each binder was assayed against T2, Human plasma sIL-6R (assay: plasma potency assay, human plasma, 2.4 nM IL6; blocked ligand IL-6).
Protocol: as §1

For B2, the IC50 was 0.25 nM.

These binders were tested against T1, Human soluble IL-6R (assay: SPR Biacore 3000, human IL-6R amine-coupled to CM5).
Protocol: Remaining reactive groups were inactivated. Nanobody binding was assessed at various concentrations ranging from 0.5 to 50 nM. Each sample was injected for 4 min at a flow rate of 45 μl/min to allow for binding to chip-bound antigen. Next, binding buffer without Nanobody was sent over the chip at the same flow rate to allow for dissociation of bound Nanobody.

Going from B6 to B7, the Kd falls from 0.9 nM to 0.1 nM (9-fold).

Going from B6 to B7, the koff falls from 0.000213 s⁻¹ to 0.0001 s⁻¹ (2.1-fold).

Going from B6 to B7, the kon rises from 230000 M⁻¹ s⁻¹ to 1e+06 M⁻¹ s⁻¹ (4.3-fold).

Each binder was assayed against T3, Cyno plasma sIL-6R (assay: plasma potency assay, cyno plasma, 2.4 nM IL6; blocked ligand IL-6).
Protocol: as §1

Binder B2 has an IC50 of 0.13 nM.

These binders were tested against T3, Cyno plasma sIL-6R (assay: plasma potency assay, cyno plasma ([IL6R]: ~0.4 nM, [IL6]: 2.4 nM printed); sIL-6R captured on BN-12, bound IL-6 detected; blocked ligand IL-6).

B1 and B2 are within 1.5-fold of each other in IC50: 0.08 nM for the first, 0.09 nM for the second.

B3 and B4 are within 1.5-fold of each other in IC50: 0.09 nM for the first, 0.11 nM for the second.

With B5 the IC50 was 0.14 nM.

These binders were tested against T2, Human plasma sIL-6R (assay: plasma potency ELISA, human plasma + human IL-6 50 ng/mL; sIL-6R captured on BN-12, bound IL-6 detected; blocked ligand IL-6).

With B8 the “IC50 (read off the curve)” value was roughly 0.04 nM.

The binders below were run against T1, Human soluble IL-6R (assay: Alphascreen IL-6/IL-6R competition with purified Nanobody; row EC50 of the table, axis [inhibitor], M; blocked ligand IL-6).

Going from B6 to B7, the IC50 falls from 0.0727 nM to 0.0432 nM (1.7-fold).

These binders were tested against T4, Cyno IL-6R (assay: SPR Biacore 3000, cyno IL-6R amine-coupled to CM5).
Protocol: Remaining reactive groups were inactivated. […] Each sample was injected for 4 min at a flow rate of 45 μl/min to allow for binding to chip-bound antigen. Next, binding buffer without Nanobody was sent over the chip at the same flow rate to allow for dissociation of bound Nanobody.

In the case of B8, the Kd is reported as 28.1 nM.

Binder B8 has a koff of 0.00611 s⁻¹.

With B8 the kon was 218000 M⁻¹ s⁻¹.

What follows are binders tested against T5, Human membrane IL-6R on cells (assay: cell-based or functional assay).

First: B6
Second: B7
The “IC50 values (nM), XG-1 assay” value of the first is 82-fold higher: 3.3 nM for the first, 0.04 nM for the second.

These binders were tested against T1, Human soluble IL-6R (assay: Biacore, binding to IL-6R).

Going from B9 to B10, the Kd rises from 0.4 nM to 5.1 nM (13-fold). The first binds more tightly here.

Going from B11 to B12, the Kd rises from 0.3 nM to 5.4 nM (18-fold).

B13 and B14 are within 1.5-fold of each other in Kd: 0.2 nM for the first, 0.3 nM for the second.

B15 and B16 are within 1.5-fold of each other in Kd: 0.3 nM for the first, 0.2 nM for the second.

First: B9
Second: B10
The koff of the first is 25-fold lower: 0.000128 s⁻¹ for the first, 0.00314 s⁻¹ for the second.

Compared with B11, B12 is 34-fold higher in koff: 0.00012 s⁻¹ for the first, 0.00409 s⁻¹ for the second.

B13 and B14 are within 1.5-fold of each other in koff: 0.000153 s⁻¹ for the first, 0.00018 s⁻¹ for the second.

Going from B15 to B16, the koff falls from 0.000233 s⁻¹ to 0.000122 s⁻¹ (1.9-fold).

Compared with B9, B10 is 1.9-fold higher in kon: 320000 M⁻¹ s⁻¹ for the first, 619000 M⁻¹ s⁻¹ for the second.

First: B11
Second: B12
The kon of the first is 2.2-fold lower: 350000 M⁻¹ s⁻¹ for the first, 762000 M⁻¹ s⁻¹ for the second.

B13 and B14 are within 1.5-fold of each other in kon: 703000 M⁻¹ s⁻¹ for the first, 543000 M⁻¹ s⁻¹ for the second.

B15 and B16 are within 1.5-fold of each other in kon: 698000 M⁻¹ s⁻¹ for the first, 767000 M⁻¹ s⁻¹ for the second.

Each binder was assayed against T2, Human plasma sIL-6R (assay: plasma potency assay, human plasma ([IL6R]: ~0.4 nM, [IL6]: 2.4 nM printed); sIL-6R captured on BN-12, bound IL-6 detected; blocked ligand IL-6).

B1 and B2 are within 1.5-fold of each other in IC50: 0.21 nM for the first, 0.19 nM for the second.

B3 and B4 are within 1.5-fold of each other in IC50: 0.24 nM for the first, 0.22 nM for the second.

B5 showed an IC50 of 0.34 nM.

Each binder was assayed against T1, Human soluble IL-6R (assay: Alphascreen IL-6/IL-6R competition (IL-6R 0.3 nM, bio-IL-6 3 nM); row EC50 of the fit table, axis [competitor], M; blocked ligand IL-6).

Compared with B9, B10 is 6.4-fold higher in IC50: 0.0747 nM for the first, 0.476 nM for the second. The first is the more potent here.

Going from B11 to B12, the IC50 rises from 0.0779 nM to 0.465 nM (6-fold). The first is the more potent here.

The binders below were run against T2, Human plasma sIL-6R (assay: plasma potency assay, human plasma, 42 nM IL6; sIL-6R captured on BN-12, bound IL-6 detected; blocked ligand IL-6).

B1 and B2 are within 1.5-fold of each other in IC50: 0.9 nM for the first, 0.8 nM for the second.

B3 and B4 are within 1.5-fold of each other in IC50: 1.2 nM for the first, 1.5 nM for the second.

For B5, the IC50 was 3.5 nM.

The binders below were run against T3, Cyno plasma sIL-6R (assay: plasma potency ELISA, cyno plasma + human IL-6 50 ng/mL; sIL-6R captured on BN-12, bound IL-6 detected; blocked ligand IL-6).

For B8, the “IC50 (read off the curve)” value was roughly 0.6 nM.

Molecular target: T1, Human soluble IL-6R
Test: Alphascreen IL-6/IL-6R competition (IL-6R 0.3 nM, bio-IL-6 3 nM); row EC50 of the fit table, axis [competitor], M; blocked ligand IL-6
Remark: another data set of the same source

B13 and B14 are within 1.5-fold of each other in IC50: 0.153 nM for the first, 0.161 nM for the second.

B15 and B16 are within 1.5-fold of each other in IC50: 0.0916 nM for the first, 0.133 nM for the second.
